Measurements as given in the nanobody polyreactivity screen of Harvey et al. (2022).

Experiment: yeast display, Sf9 membrane polyspecificity reagent, FACS + sequencing; frameworks hold sequencing errors
In short: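 Galactose-induced (36–48 hours) yeast carrying a synthetic nanobody display library were exposed to 10% biotinylated, detergent-solubilized Sf9 membrane reagent at 4 °C for 1 hour. FACS followed streptavidin microbead enrichment, using low and high (top ~1%) gates for expression (anti-HA) and reagent binding (streptavidin). Colony PCR, MiSeq 2 × 250 sequencing and CDR-length filtering followed. Labels for polyreactivity reflect the gate of origin.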

| Sequence | polyreactivity (PSR sort gate) |
| --- | --- |
| QVQLVESGGGLVQAGGSLRLSCAASGLIFGWYAMGWSRQAPGKEREFVASIRYGGGSTYYADSVKGRFTISRDYAKNTVYLQMNSLKPEDTAVYYCAADRYPWHLQYVEYDSDYWGQGTQVTVSS | low polyreactivity |
| QVHLVESGGGLVQAGGSLRLRCAASGYPFKRNDMGWYRHAPGKETQFVPAISKSGGSTYYADSVKGRFTISRDNAKNSVYLQRNSLKPEDTAVSYCAATRGLYRYWGRDKFDYWGQGTQVTVSS | low polyreactivity |
| QVQLVESGGGLVQAGGSLRLSCAASGSIFTAYTMGWYRQAPGKERELVAAITERGGSTYYADSVKGRFTISRDNAKKTVYLQMNSMKPEDTAVYYCAASTLKDIYLWFRVDYWGQGTQVTVSS | low polyreactivity |
| QVQLVESGGGLVQAGGSLRLSCAASGRILKRNSMGWYRQAPGKERELVAAITSSGGSTYADSVKGRFTISRDNEKNTVYLQMNSLKPEDTAVYYCNAGYKRPWSHKYYWGQGTQVTVSS | low polyreactivity |
| QVQLVESGGGLVQAGGSLRLSCAASGFTFSSYAMGWYRQAPGKERELVAAISYSGGSTYYADSVKGRFTISRDNAKNTVYLQMNSLKPEDTAVYYCAAQRGSEYYWGQGTQVTVSS | high polyreactivity |
| QVQLVESGGGLVQAGGSLRLSCAASGRIFSRNAMGWYRQAPGKERELVAAISRSGTRTNYADSVKGRFTISRDNAKYTVYLQMNSLKPEDTAVYYCATAAFIVGSSRTYDYWGQGTQVTVSS | high polyreactivity |
| QVQLVESGGGLVQAGGSLRLSCAASGLTLQGYVMGWSRQAPGKERELVAAISTGGSTHYADSVKGRFTISRDNAKNTVYLQMNSLKPEDTAVYYCAAGWVLWFRDPQGRASYYWGQGTQVTVSS | high polyreactivity |
| QVQLVESGGGLVQAGGSLRLICAASGSIFGVYAMGWYSQAPGKERELVATITRGGSTYYADSVKGRFTISRDNAKNTGYLQMNSLKPEDTSVYYGARAPVYFRHKYYYWGQGTQVTVSS | high polyreactivity |
| QVQLVESGGGLVQAGGSLRLICAASGRISGRYAMGWYRQAPGKERELVAAITSRGGRTYYADSVKGRFTISRDNAKNTVYLQMNSLKPEDTAVYYCIAVGGYWFDYWGQGTQVTVSS | high polyreactivity |
| QVQLVESGGGLVQAGGSLRLSCAASGRIFVYYTMGWYRPAPGKERELVAAIRSSGGSTYADSVKGRFTISRDNAKNTVSLQMNSLKPEDTAVYYCNAGYRSWQYRSGLYGDYNYWGQGTQVTVSS | high polyreactivity |
| QVQLVESGGGLVQAGGSLSLICAASGFTFYIYAMGWSRQAPRKERELVAAISSSGGSTYYADSVKGRFTISRDNAKITVYLQMNSLKPEDTAVYYCARRLLRGSDWGQGTQVTVSS | high polyreactivity |
| QVQLVESGGRLVQAGGSLRLSCAASGFIFKYYAMGWYRQAPGKEREFVAAITWSGSSTNYADSVKGRFTISRDNAKNTVYLQMNSLKPEDTAVYYCNADRKYYKYDYWGQGTQVTVSS | high polyreactivity |
| QVQLVESGGGLVQAGGSLRLSCAASGFTFGWYDMGWYRKATGKERELVASISWSGSSTYYADSVKGRFTISRDNAKNTVYLQMNSLKPEDTAVYYCATPYWRRYDYWGQGTQVTVSS | high polyreactivity |
| QVQLVESGGGLVQAGGSLRLSCAASGGIFNTYAMGWYRQAPGKEREFVAAISRRGGGTYYADSVKGRFTISRDNAKNTVYLQMNSLKPEDTAVYYCNADDKRGSRGYGSDHWGQGTQVTVSS | high polyreactivity |
| QVQLVESGGGLVQAGGSLRLSCAASGRIYPYAMGWYRQAPGKERELVAAITSRGGTTYYADSVKGRFTISRDNAKNTVYLQMNSLKPEDSAVYYCAADQHIRVSWYLQMYYWGQGTQVTVSS | low polyreactivity |
| QVQLVESGGGLVQAGGSLRLSCAASGSTFGPNAMGWYRKAPGKERELVAALSKRGGRTDYADSVKGRFTISRDNAKNTVYLQMNSLKPEDTAVYYCNARDGSYYQGDYWGQGNQVTVSS | high polyreactivity |
| QVQLVESRGGLVQAGGSLRLSCAASGRTFWYYAMGWYRQAPGKEMELVATITGSGGTTYYADSVKGRFTISRDNAKNTVYLQMNSLKREDTAVYYCAKEQHWYIYGPAEVDYWGQGTQVTVSS | high polyreactivity |
| QVQLVESGGGLVQAGGSLRLSCAASGGTFGAYAMGWYRQAPGKERELVAAINVGGGSTYYADSVKGRFTISRDNAKNTVYLQMNSLKPEDTAVYYCAKDLYDGYWRGDYWGQGTQVTVSS | low polyreactivity |
| QLQLVESGGGLLQAGGSLRLSCAAPGSTFAPNTMGWNRQPPGKARELVARITSSDGSTSYADSVKGRFTISRDNAKNTVYLQMNSLKPEDTAVYYCAAQYSYSMDYWGQGTQVTVSS | low polyreactivity |
| QVQLEESGGGLVQAGASLRLSCAASGRTFGSYAMGWYRQAPGKERELVAAISLSAGSTYYADSVKGRFTISRDNAKNTVYLQMNSLKPEDTAVYYCAAGTQWYSHVFIYYYWGQGTQVTVSS | low polyreactivity |
| QVQLVESGGGIVQAGGSLRLSCAASGSTFKSYAMGWYRQAPGKERELVAAITHRGSTYYADSVKGSFTISRDNAKNTVYLQMKSLKPEDTAVYYCNVRRICNGRRVDYWGQGTQVTVSS | high polyreactivity |
| QVQLVESGGGLVQAGGSLRLSCAASGYIFVGNAMGWYRQAPGKERELVATIRSSTGNTYADSVKGRFTISRDNAKNTVYLQMNSLKPEDTAVYYCATVYEWPGWGREYGYWGQGTQVTVSS | low polyreactivity |

| Sequence | polyreactivity (PSR sort gate) |
| --- | --- |
| QVQLGESGGGLVQAGGSLRLSCAASGSIFRYYVMGWYRQAPGKERELVATISRDSSRNYADSVKGRFTISRDNAKNTVYLQMNSLKPEDTAVYYCNTEGGVIRSYWYDYWGQGTQVTVSS | low polyreactivity |
| QVQLVESGGGLVQAGGSLRLSCAASGSMSYGYGMGWYRQAPGKEREVVATISGRAGSTYYADSVKGRFTISRDNAKNTVYLQINSLQPEDTAVYYCAAKWWRLTWTAGYGGRGYGYWGQGTQVTVSS | low polyreactivity |
| QVQLVESGGGLVQAGGSLRLSCAASGRTFYSYAMGWYRQAPGKERELVASISSGGGTNYADSVKGRFTISRDNAKNTVYLQMNSLKPEDTAVYYCAAKYWFFYPYDYWGQGTQVTVSS | low polyreactivity |
| QVQLVESGGGLVQGVGTLRLSCAASGITFVYYAMGWSRHAPVKERELFAAISSGGSSTYYADSVKGRFTMSRDTAKNTVYLQMHSQKPEDTAVYYCAATNYFPRLQWMDYWGQGTQVTVSS | low polyreactivity |
| QDQLVESGGGLVQAGGSLRLSCAASGRIFTRYAMGWYRQAPGKEREFVAAISVRGGTTYYADSVKGRFTISRDNAKNTVYLQMNSLKPEDSAVYYCAARKISKYDYWGQGTQVTVSS | high polyreactivity |
| QVQLVESGGGLVQAGGSLRLSCAASGRIFWEYAMGWYRQAPGKERELVAAITWRVGSTYYADSVKGRFTISRDNAKNTVYLQMNSLKPEDTAVYYCVARSQSIRYTYIRSYYWGQGTQVTVSS | low polyreactivity |
| QVQLVESGGGLVQAGGSLRLSFAASGRIFGTNTMGWYRQATGKERELVAGISSSGDSTYYADSVKGRFTISRDKAKNTVYLQINSLKPEDTAVYYCAARKGEFWLPQGGYNYWGQGTQVTVSS | low polyreactivity |
| QVQLVESGGGLVQAGGSLRLSCAASGIYGYNAMGWYRQAPGKERELVAAITSSGTSTYYADSVKGRFTISRDNAKNTVYLQMNSLKPEDTAVYYCAALHSGTWTGYGYWGQGTQVTVSS | low polyreactivity |
| QVQIVESGGGLVQPGGSLRLSCAASGSTFTRNAMGWYRQAPGKERELVAAISFSGGSTYYADSVKGRFTISRDTAKNTVYLQMNSLKPEDTAVYYCAAEEGRVFSGGYDYWGQGTQVTVSS | high polyreactivity |
| QVQLVESGGGLVQAGGSLRLICAASGSIFGHNAMGWYRQAPGKERELVAAISRGTRTNYADSVKGRFTISRDNEKNTVYLQMNSLKPEDTAVYYCNLQPGRGPYVGRKYGYWGQGTQVTVSS | high polyreactivity |
| QVQLVESGGGLVQAGGSLRLSCAASGSIFAYYAMGWYRQAPGKEMELVARIRRRSSSTFYADSVKGRFTISRDNAKNTVYLQMNSLKPEDTAVYYCAVRGPGTSTYWYHEYEYWGQGTQVTVSS | high polyreactivity |
| QVQLVESAGGLVQAGGSLRLSCAASGITIVRYARGWSRQAPGKERELVAAINRSGGSTYDADSVKGRFTISRDNAKNTVYLQMNSLKPEDTAVYYCAARLYGKYDPPGYYYWGQGTQVTVSS | high polyreactivity |
| QVQLVESGGGLVQAGGSLRLSCAASGSTLAPYVMGWYIQAPGKERELVAVISTRTGRTYYAVSVKGRFTISRDNAKNTVYLQMNSLKPEDTAVYYCAAAYGWSWYRYDYWGQGTQVTVSS | high polyreactivity |
| QVQLVESGGGLVQAGGSLRLSCAASGRTFGGYAMGWYRQAPGKERELVAAITYSGGSTYYADSVKGRFTISRDNAKNTVYLQMNSLKPEDTAVYYCAAEGSSSYTYDYWGQGTQVTVSS | low polyreactivity |
| QVQLVESGGGLDQAGGSLRLSCAASGRIFTYYTMGWYRQAPGKERELVATIRWSGGRTYYADSVKGRFTISRDNAKNTVYLQMNSLKPEDTAVYYCAANTYWRHYTPYTYGYWGQGTQVTVSS | high polyreactivity |
| QGQLVESGGGLVQAGGSLRFSCAASGSTFRSYALGGYRQAPGKEWELVAAISGDGSTNYADSVKGRFTISRDNAKNPVYLQMNSLKPEDTAVYYCAKDPGYPAPYYDYYYWGQGTKVTVSS | low polyreactivity |
| QVQLVESGGGLVQAGGSLRLSCAASGSTFQTYVMGWYRQAPGKERELVAAITWSGGSTYYADSVKGRFTISRDNAKNTVYLQMNSLKPEDTAVYYCAARFPWRGGVKYSYYFQHDYWGQGTQVTVSS | high polyreactivity |
| QVQLVESGGGLVQAGGSLRLSCAASGPTFRYYAMGWYRQAPGKERELVATITGSGGSTYYADSVKGRFTISRDNAKNTVYLQMNSLKPEDTAVYYCNARKVRYPYRWYDYWGQGTQVTVSS | high polyreactivity |
| QVQLQESGGGLVRAGGSLSLSCAASGTIFGQFYMGRYRQAPGKEREFVATINYGSSTNYADSVKGRYTISRDNAKNTVYLQMNSLKPEDTAVYYCNTDFFYYGYNFPYFDYDYWGQGSQVTVSS | low polyreactivity |
| QVQLVESGGGLVQAGGSLRLSCAASGFTLGYYTMGWYRQAPGKERELVAAIRSNGGSTYYADSVKGRFTISRDNAKNTVYLQMNSLKPEDTAVYYCAADHAYFLTHSSYLFYYWGQGTQVTVSS | high polyreactivity |
| QVQLVESGGGLVQAGGSLRLSCAASGFIFPFYVRGWYRQAPGKERELVAAINTGGSTYYADSVKGRFTISRDNAKNTVYLQMNSLKPEDTAVYYCAAKSRVKKYYFYGYNYWGQGTQVTVSS | high polyreactivity |
